Results: paper PMC10315472 (2023)

Molecular target: wild-type SARS-CoV-2 Spike receptor-binding domain (SARS-CoV-2, UniProt P0DTC2 319-527)
Assay: SPR

CPWNAYECDRHCVSKGYTGGNCRGKIRQTCHCY [(ΔGFG)AMSIN]
koff: 0.0223 s⁻¹
